Reference: the DeepSol protein solubility set

assay: soluble on expression in E. coli; label from the status in PepcDB or PDB records

Sequence	soluble on expression in E. coli
MDDQGCPRCKTTKYRNPSLKLMVNVCGHTLCESCVDLLFVRGAGNCPECGTPLRKSNFRVQLFEDPTVDKEVEIRKKVLKIYNKREEDFPSLREYNDFLEEVEEIVFNLTNNVDLDNTKKKMEIYQKENKDVIQKNKLKLTREQEELEEALEVERQENEQRRLFIQKEEQLQQILKRKNKQAFLDELESSDLPVALLLAQHKDRSTQLEMQLEKPKPVKPVTFSTGIKMGQHISLAPIHKLEEALYEYQPLQIETYGPHVPELEMLGRLGYLNHVRAASPQDLAGGYTSSLACHRALQDAFSGLFWQPS	soluble
MTNHIEYKKNQIIASSEIDDLIFMSAPQEWSLEEQKEIQDKLVREAFHFHYNRNEKYRNYCISQHINENLHSIDEIPVFPTSIFKHMKFHTVSMGDIENWHTSSGTQGIKSCIARDRLSIERLLGSVNFGMKYVGNWFEHQMELVNLGPDRFSASNVWFKYVMSLVELLYPTVFTVNNDKIDFEETVNHLYRINNSNKDICLIGPPFFVSLLCQYMKENNIEFKGENRLHVITGGGWKSNENSSLNRQDFNQLIMDTFQLDNVNQIRDTFNQVELNTCFFEDEFQRKHVPPWVYARALDPETLKPVADGELGLLSYMDASSTAYPAFIVTDDIGIVREIREPDPYPGVTVEIVRRLNTRAQKGCALSMASFIQSTILEHHHHHH	not soluble
MAHHHHHHMVFHLNIFNKGKRQNLVSAYLNHFKKSYFSGVTSGSDCVNKSEVSSDNNNNNNNNNNKIAHNFFSKKYQRNFENNNLSENQENNKNIIYSGSNIFKNIYNTEMMSNNNTVDVNMMDNNPAARLEELRTIMKKNKIDVYILINSDEHNSEIINEKDKKIVKITNYSGADGILIVTKDKPILYVNALYELQAMNELDQNLFTLRISRIDNRDEIFETISSLEFNTIAFDGKNTSVVFYEKLRKALLNAYPKKKIVEKIIYNNNFDDVNKKDDENVLNFLVLEKSLVEIKDYPVNNKTLYIHDRKYNGACAGEKIDKLKQSLMYDIKNVDNLLLSELDEIAYLLNLRGYDYQYSPLFYSYLLFQFDREEQDFSKIVFFTTVKNLPADVKNLLEINKVIVKEYEEIVPYLRDVVIPSIPKHNDDNPDFKKYDISLSPYINLMIYKLFDRKNVLLQNSPVVKMKAVKNDVEIDNMKQAHILDGLALLQFFHWCEQKRKTKELFNETEMSLRHKVDYFRSTKKNFIFPSFSTISASGPNAAVIHYECTDKTNATIKPAIYLLDSGGQYLHGTTDVTRTTHFGEPTAEEKRIYTLVLKGHLRLRKVIFASYTNSSALDFIARENLFNNFMDYNHGTGHGVGLTLNVHEGGCSIGPVGGAPLKKNMVLSNEPGYYMKDKFGVRIENMQYVISKEITDTTEYLSFDDLTMYPYEK	not soluble
MGSDKIHHHHHHMTENEFLSQEEIDKLLSDSDTGGVLTPEEKDMIGEIGNIAMGSAATTLSMILGRDIHITVPTVREEKMKNVKSDFSGEQVVVSVEYTEGLEGLNVLVLDKKLVAVIADLMMGGSGEVETEELDEIKLSAVGEAMNQMMGSAATSLSELLGITINISPPKVEILNFDDPNTQFPPVTDNPEKDVAVVEFEMEIEGLPKSKFYQVISADLVKKMYEYFTKKQSEAAEKKEKKEEKKVKVEPVEFAELKPSETRKTEVPSDKLELLLDIPLKVTVELGRTRMTLKRVLEMIPGSIIELDKLTGEPVDILVNGKLIARGEVVVIDENFGVRITEIVSPKERLELLNE	not soluble
MGSDKIHHHHHHMAVKVLSIDLGATNGKIYEVELKDRLTVKEIKRFRTEGTFLPGKDREHFVWNLPGFYEEIKGVLEASDAQSVGVDTWGVDFALLDENGRLVSLPYHYRDVRTKGVMKKAFEVVPKDEIFQRTGIQFMEINTLYQLYSMVLSNDPFLKTTKHLLMIPDVFNFWLSGEMVSEYTIASTSQCYSVPDGEWAYDLLEKLSIPTEIFPKVVPPGTILGKCRVKKGINVIATACHDTASAVVAVPLEGEGIYISSGTWFLVGTELERPLLSKEALERNFTNEGGYGKIRFLKNATGMWLLEECNRIWKKDYSEIIESVRNVPGFQAFLDPDREEFLHPGNMPERIRNYLERTGQKILERIGEISRLIFESLAFNCRWIVEQIKELTGKRYGKIHVVGGAVRNDLLMSFIASATGKTVVAGPVDATPIGNALVQLITLGAIANINEARKIVKESFELKTFEPKNPELWSEKYEEWRRYKGMRV	not soluble
MAKGYWIAQVDVRDSERYKDYVSTAKPAFERFGANFLARGGSVTELEGTARARNVVIEFPSVQHAIDCYNSPEYQAAAKIRQEVADAEMMIVEGI	soluble
MDLQIIQNKIFEVRGCRVMLDFHLAELYQVETRALKQAVKRNLSRFPSDFAFQLTKDEWQGLITNCDKFPENIRHTPTPPLAFLEQGVAMLSSVLRSQTAIDVNISIMRAFVLMRQMSIGYEELLKRIEELEQSTDAQFSEVYQALTQLLSKPDPKPRKPIGYRTYDE	not soluble
MIEQPDSKSAKPLYKQLEAALKEAIARGEYKPGQQIPTENELSVRWQVSRVTVRKALDALTRENLLTRVSGKGTFVSGEKFQRSMTGIMSFSELCQSQGRRPGSRTIKSVFESVDDETKALLNMNDGEKAVVIERIRYADDVAVSLETVHLPPRFAFLLDEDLNNHSLYECLREKYHLWFTHSRKMIELVYASFEVAHYLGVNEGYPLILIKSEMIDNKGELSCVSQQLIVGDKIRFTV	not soluble
MTAQPVETIKIDSEAGELGFERLGVLIKEYKPEKVVLGLPKHMNGDEGIRAEASRDYGTKLANEFGLEVAYQDERLTTAQAEKVLIDGGVRRKERKKSIDKLAAVLILQNYLDAHALKL	not soluble
MHHHHHHSSGVDLGTENLYFQSMMQKLVVTRLSPNFREAVTLSRDCPVPLPGDGDLLVRNRFVGVNASDINYSAGRYDPSVKPPFDIGFEGIGEVVALGLSASARYTVGQAVAYMAPGSFAEYTVVPASIATPVPSVKPEYLTLLVSGTTAYISLKELGGLSEGKKVLVTAAAGGTGQFAMQLSKKAKCHVIGTCSSDEKSAFLKSLGCDRPINYKTEPVGTVLKQEYPEGVDVVYESVGGAMFDLAVDALATKGRLIVIGFISGYQTPTGLSPVKAGTLPAKLLKKSASVQGFFLNHYLSKYQAAMSHLLEMCVSGDLVCEVDLGDLSPEGRFTGLESIFRAVNYMYMGKNTGKIVVELPH	soluble
MKNNKPICFYDIYCFKPQECFKRNDINLLEDKLKRYSKITFLRNKENPEIIFLLGGDGSFINFINQQWKKNVKIVGINYGQLGFYSSYDSIKTINLDEIIDENMYYNPLLLKVSINNQNFFYCLNELSLFSNELVSFDISINDYPYEKFRGSGLLFVTPSGSTGKNKTAFGPIIFNNHENFIMTEIFPVNHLKYSSLNAPVVFRKDYKISLTNIKFKKSFSVAIDGNIINFSDKINDIKVETIQASSKIHGLNNFKKYIDKLNKSFIKGEMAGDPLEHHHHHH	soluble
MANEPQKSDDNGQAAEAVVTDDEIVLQDQQLKTIEDEQKSVPLVATLAPFSILCAEYDNETSAAFLSKATELSEVYGEIRYIRGDGNCFYRAILVGLIEIMLKDRARLEKFIASSRDWTRTLVELGFPDWTCTDFCDFFIEFLEKIHSGVHTEEAVYTILNDDGSANYILMFFRLITSAFLKQNSEEYAPFIDEGMTVAQYCEQEIEPMWKDADHLAINSLIKAAGTRVRIEYMDRTAAPNGGWHYDIPSDDQQIAPEITLLYRPGHYDVIYKKDSTEASEIEN	not soluble
MKLTPKELDKLMLHYAGELAKKRKEKGIKLNYVEAVALISAHIMEEARAGKKTAAELMQEGRTLLKPDDVMDGVASMIHEVGIEAMFPDGTKLVTVHTPIEANGKLVPGELFLKNEDITINEGKKAVSVKVKNVGDRPVQIGSHFHFFEVNRCLDFDREKTFGKRLDIAAGTAVRFEPGEEKSVELIDIGGNRRIFGFNALVDRQADNESKKIALHRAKERGFHGAKSDDNYVKTIKE	soluble
MTKTAFLFAGQGAQYLGMGRDFYDQYPIVKETIDRASQVLGYDLRYLIDTEEDKLNQTRYTQPAILATSVAIYRLLQEKGYQPDMVAGLSLGEYSALVASGALDFEDAVALVAKRGAYMEEAAPADSGKMVAVLNTPVEVIEEACQKASELGVVTPANYNTPAQIVIAGEVVAVDRAVELLQEAGAKRLIPLKVSGPFHTSLLEPASQKLAETLAQVSFSDFTCPLVGNTEAAVMQKEDIAQLLTRQVKEPVRFYESIGVMQEAGISNFIEIGPGKVLSGFVKKIDQTAHLAHVEDQASLVALLEKL	soluble
